Laboratory results published in the RNAGym collection of RNA variant scans (doi:10.7554/elife.90254).

B1: OR4K15 (parent)
chain: GUUAACGGUCAUAGGCCAUGGAAACUAGGAGCACCAUUUCGCUGCCAGUGAAGAAAUGAACAAAGAAAAUCUGGGCCAGGCAGGCAUCAAAAGAAAUAGUCUUGCGCUCAACCAGAAAGUCUGUAAUCAUUUUAAGGGUA

Variants of: B1
Assay: self-cleavage, relative activity (ratio to wild type); higher = more cleavage; in vitro, sequencing; the parent is a self-cleaving ribozyme
In the case of GUUAACGGUCAUAGGCCAUGGAAACUAGGAGCACCAUUUCGCUGCCAGUGAAGAAAUGAACAAAGAAAAUCUGGGCCAGGCAGGCAUCAAAUGAAAUAGUCUUGCGCUCAACCAGAAGGUCUGUAAUCAUUUUAAGGGUA [A92U A118G], the self-cleavage is reported as 1.02.
Variant GUUAACGGUCAUAGGCCAUGGAAACUAGGAGCACCAUUUCGCUGCCAGUGAAGAAAUGAACAAAGAAAAUCUGGGCCAGGCAGGCAUCAAAGGAAAUAGUCUUGCGCUCAACCAGAAAGUCUGUAAUCAUUGUAAGGGUA [A92G U132G] has a self-cleavage of 1.04.
Work on GUUAACGGUCAUAGGCCAUGGAAACUAGGAGCACCAUUUCGCUGCCAGUGAAGAAAUGAACAAAGAAAAUCUGGGCCAGGCAGGCAUCAAAGGAAAUAGUCUUGCGCUCAACCAGAAAGUCUGUAAUCAUUAUAAGGGUA [A92G U132A] yielded a self-cleavage of 1.23.
For GUUAACGGUCAUAGGCCAUGGAAACUAGGAGCACCAUUUCGCUGCCAGUGAAGAAAUGAACAAAGAAAAUCUGGGCCAGGCAGGCAUCAAAUGAAAUAGUCUUGCGCUCAACCAGAAAGUCUGUAAUCAUCUUAAGGGUA [A92U U131C], the self-cleavage was 1.36.
In the case of GUUAACGGUCAUAGGCCAUGGAAACUAGGAGCACCAUUUCGCUGCCAGUGAAGAAAUGAACAAAGAAAAUCUGGGCCAGGCAGGCAUCAAAAGGAAUAGUCUUGCGCUCAACCAGAGAGUCUGUAAUCAUUUUAAGGGUA [A94G A117G], the self-cleavage is reported as 1.92.
With GUUAACGGUCAUAGGCCAUGGAAACUAGGAGCACCAUUUCGCUGCCAGUGAAGAAAUGAACAAAGAAAAUCUGGGCCAGGCAGGCAUCAAAAGGAAUAGUCUUGCGCUCAACCAGAAAGUCUGUAUUCAUUUUAAGGGUA [A94G A126U] the self-cleavage was 1.08.
GUUAACGGUCAUAGGCCAUGGAAACUAGGAGCACCAUUUCGCUGCCAGUGAAGAAAUGAACAAAGAAAAUCUGGGCCAGGCAGGCAUCAAAAGGAAUAGUCUUGCGCUCAACCAGAAAGUCUGUACUCAUUUUAAGGGUA [A94G A126C] showed a self-cleavage of 0.82.
For GUUAACGGUCAUAGGCCAUGGAAACUAGGAGCACCAUUUCGCUGCCAGUGAAGAAAUGAACAAAGAAAAUCUGGGCCAGGCAGGCAUCAAAAGGAAUAGUCUUGCGCUCAACCAGAAAGUCUGUAGUCAUUUUAAGGGUA [A94G A126G], the self-cleavage was 1.3.
Work on GUUAACGGUCAUAGGCCAUGGAAACUAGGAGCACCAUUUCGCUGCCAGUGAAGAAAUGAACAAAGAAAAUCUGGGCCAGGCAGGCAUCAAAAGGAAUAGUCUUGCGCUCAACCAGAAAGUCUGUAAUCGUUUUAAGGGUA [A94G A129G] yielded a self-cleavage of 1.29.
With GUUAACGGUCAUAGGCCAUGGAAACUAGGAGCACCAUUUCGCUGCCAGUGAAGAAAUGAACAAAGAAAAUCUGGGCCAGGCAGGCAUCAAAUGAAAUAGUCUUGCGCUCAACCAGAAAGUCUGUAUUCAUUUUAAGGGUA [A92U A126U] the self-cleavage was 1.02.
With GUUAACGGUCAUAGGCCAUGGAAACUAGGAGCACCAUUUCGCUGCCAGUGAAGAAAUGAACAAAGAAAAUCUGGGCCAGGCAGGCAUCAAAUGAAAUAGUCUUGCGCUCAACCAGAAAGUCUGUAAUCAUUUUAAGGGCA [A92U U139C] the self-cleavage was 1.43.
GUUAACGGUCAUAGGCCAUGGAAACUAGGAGCACCAUUUCGCUGCCAGUGAAGAAAUGAACAAAGAAAAUCUGGGCCAGGCAGGCAUCAAAUGAAAUAGUCCUGCGCUCAACCAGAAAGUCUGUAAUCAUUUUAAGGGUA [A92U U102C] gave a self-cleavage of 2.01.
With GUUAACGGUCAUAGGCCAUGGAAACUAGGAGCACCAUUUCGCUGCCAGUGAAGAAAUGAACAAAGAAAAUCUGGGCCAGGCAGGCAUCAAAGGAAAUAGUCUUGCGCUCAACCAGAAAGUCUGUAAUCAUCUUAAGGGUA [A92G U131C] the self-cleavage was 0.49.
GUUAACGGUCAUAGGCCAUGGAAACUAGGAGCACCAUUUCGCUGCCAGUGAAGAAAUGAACAAAGAAAAUCUGGGCCAGGCAGGCAUCAAAAGGUAUAGUCUUGCGCUCAACCAGAAAGUCUGUAAUCAUUUUAAGGGUA [A94G A95U] gave a self-cleavage of 2.66.
In the case of GUUAACGGUCAUAGGCCAUGGAAACUAGGAGCACCAUUUCGCUGCCAGUGAAGAAAUGAACAAAGAAAAUCUGGGCCAGGCAGGCAUCAAAAGCAAUAGUCUUGCGCUCAACCAGAAAGUCUGUAAUCAUUUUAAGGGUA [A94C], the self-cleavage is reported as 1.69.
For GUUAACGGUCAUAGGCCAUGGAAACUAGGAGCACCAUUUCGCUGCCAGUGAAGAAAUGAACAAAGAAAAUCUGGGCCAGGCAGGCAUCAAAAGGAAUAGUCUUGCGCUCAACCAGAAAGUCUGUAAUCAUUUUAAGGGUA [A94G], the self-cleavage was 1.39.
For GUUAACGGUCAUAGGCCAUGGAAACUAGGAGCACCAUUUCGCUGCCAGUGAAGAAAUGAACAAAGAAAAUCUGGGCCAGGCAGGCAUCAAAAGGAAUAGUCUUGCGCUCAACCAGAAGGUCUGUAAUCAUUUUAAGGGUA [A94G A118G], the self-cleavage was 0.8.
Work on GUUAACGGUCAUAGGCCAUGGAAACUAGGAGCACCAUUUCGCUGCCAGUGAAGAAAUGAACAAAGAAAAUCUGGGCCAGGCAGGCAUCAAAUGAAAUAGUCUUGCGCUCAACCAGAAAGUCUUUAAUCAUUUUAAGGGUA [A92U G123U] yielded a self-cleavage of 2.07.
For GUUAACGGUCAUAGGCCAUGGAAACUAGGAGCACCAUUUCGCUGCCAGUGAAGAAAUGAACAAAGAAAAUCUGGGCCAGGCAGGCAUCAAAAAAAAUAGUCUUGCGCUCAACCAGAAAGUCUGUAGUCAUUUUAAGGGUA [G93A A126G], the self-cleavage was 2.16.
GUUAACGGUCAUAGGCCAUGGAAACUAGGAGCACCAUUUCGCUGCCAGUGAAGAAAUGAACAAAGAAAAUCUGGGCCAGGCAGGCAUCAAAUGAAAUAGUCUUGCGCUCAACCAGAAAGUCCGUAAUCAUUUUAAGGGUA [A92U U122C] showed a self-cleavage of 1.3.
Work on GUUAACGGUCAUAGGCCAUGGAAACUAGGAGCACCAUUUCGCUGCCAGUGAAGAAAUGAACAAAGAAAAUCUGGGCCAGGCAGGCAUCAAAAGGAAUGGUCUUGCGCUCAACCAGAAAGUCUGUAAUCAUUUUAAGGGUA [A94G A98G] yielded a self-cleavage of 0.27.
GUUAACGGUCAUAGGCCAUGGAAACUAGGAGCACCAUUUCGCUGCCAGUGAAGAAAUGAACAAAGAAAAUCUGGGCCAGGCAGGCAUCAAAGGAAAUAGUCUUGCGCUCAACCAGAAAGUCUGUAAUCAUUUUAAGGGCA [A92G U139C] gave a self-cleavage of 1.75.
GUUAACGGUCAUAGGCCAUGGAAACUAGGAGCACCAUUUCGCUGCCAGUGAAGAAAUGAACAAAGAAAAUCUGGGCCAGGCAGGCAUCAAAAUAAAUAGUCUUGCGCUCAACCAGAAAGUCUGUAAUCAUUUUGAGGGUA [G93U A134G] gave a self-cleavage of 1.18.
GUUAACGGUCAUAGGCCAUGGAAACUAGGAGCACCAUUUCGCUGCCAGUGAAGAAAUGAACAAAGAAAAUCUGGGCCAGGCAGGCAUCAAAUGAAAUAGUCUUGCGCUCUACCAGAAAGUCUGUAAUCAUUUUAAGGGUA [A92U A110U] showed a self-cleavage of 1.74.
With GUUAACGGUCAUAGGCCAUGGAAACUAGGAGCACCAUUUCGCUGCCAGUGAAGAAAUGAACAAAGAAAAUCUGGGCCAGGCAGGCAUCAAAAGGAAUAGUCUUGCGCUCAACCGGAAAGUCUGUAAUCAUUUUAAGGGUA [A94G A114G] the self-cleavage was 0.36.
In the case of GUUAACGGUCAUAGGCCAUGGAAACUAGGAGCACCAUUUCGCUGCCAGUGAAGAAAUGAACAAAGAAAAUCUGGGCCAGGCAGGCAUCAAAAGGAAUAGUCUUGCGCUCAACCAGGAAGUCUGUAAUCAUUUUAAGGGUA [A94G A116G], the self-cleavage is reported as 0.39.
Work on GUUAACGGUCAUAGGCCAUGGAAACUAGGAGCACCAUUUCGCUGCCAGUGAAGAAAUGAACAAAGAAAAUCUGGGCCAGGCAGGCAUCAAAAGGAAUAGUCUUGCGCUCAACCAGUAAGUCUGUAAUCAUUUUAAGGGUA [A94G A116U] yielded a self-cleavage of 0.38.
In the case of GUUAACGGUCAUAGGCCAUGGAAACUAGGAGCACCAUUUCGCUGCCAGUGAAGAAAUGAACAAAGAAAAUCUGGGCCAGGCAGGCAUCAAAAGGAAUAGUCUUGCGCUCAACCAGCAAGUCUGUAAUCAUUUUAAGGGUA [A94G A116C], the self-cleavage is reported as 0.24.
For GUUAACGGUCAUAGGCCAUGGAAACUAGGAGCACCAUUUCGCUGCCAGUGAAGAAAUGAACAAAGAAAAUCUGGGCCAGGCAGGCAUCAAAAGCAAUAGCCUUGCGCUCAACCAGAAAGUCUGUAAUCAUUUUAAGGGUA [A94C U100C], the self-cleavage was 2.31.
GUUAACGGUCAUAGGCCAUGGAAACUAGGAGCACCAUUUCGCUGCCAGUGAAGAAAUGAACAAAGAAAAUCUGGGCCAGGCAGGCAUCAAAAAAAAUAGUCUUGCGCUCAGCCAGAAAGUCUGUAAUCAUUUUAAGGGUA [G93A A111G] showed a self-cleavage of 0.04.
Work on GUUAACGGUCAUAGGCCAUGGAAACUAGGAGCACCAUUUCGCUGCCAGUGAAGAAAUGAACAAAGAAAAUCUGGGCCAGGCAGGCAUCAAAAGGAUUAGUCUUGCGCUCAACCAGAAAGUCUGUAAUCAUUUUAAGGGUA [A94G A96U] yielded a self-cleavage of 0.68.
Variant GUUAACGGUCAUAGGCCAUGGAAACUAGGAGCACCAUUUCGCUGCCAGUGAAGAAAUGAACAAAGAAAAUCUGGGCCAGGCAGGCAUCAAAAGGAGUAGUCUUGCGCUCAACCAGAAAGUCUGUAAUCAUUUUAAGGGUA [A94G A96G] has a self-cleavage of 1.35.
Work on GUUAACGGUCAUAGGCCAUGGAAACUAGGAGCACCAUUUCGCUGCCAGUGAAGAAAUGAACAAAGAAAAUCUGGGCCAGGCAGGCAUCAAAUGUAAUAGUCUUGCGCUCAACCAGAAAGUCUGUAAUCAUUUUAAGGGUA [A92U A94U] yielded a self-cleavage of 2.03.
GUUAACGGUCAUAGGCCAUGGAAACUAGGAGCACCAUUUCGCUGCCAGUGAAGAAAUGAACAAAGAAAAUCUGGGCCAGGCAGGCAUCAAAUGAAAUAGCCUUGCGCUCAACCAGAAAGUCUGUAAUCAUUUUAAGGGUA [A92U U100C] gave a self-cleavage of 2.23.
For GUUAACGGUCAUAGGCCAUGGAAACUAGGAGCACCAUUUCGCUGCCAGUGAAGAAAUGAACAAAGAAAAUCUGGGCCAGGCAGGCAUCAAAAGCAGUAGUCUUGCGCUCAACCAGAAAGUCUGUAAUCAUUUUAAGGGUA [A94C A96G], the self-cleavage was 0.94.
GUUAACGGUCAUAGGCCAUGGAAACUAGGAGCACCAUUUCGCUGCCAGUGAAGAAAUGAACAAAGAAAAUCUGGGCCAGGCAGGCAUCAAAAGGAAUAGUCUUGCGCUCAGCCAGAAAGUCUGUAAUCAUUUUAAGGGUA [A94G A111G] gave a self-cleavage of 0.03.
For GUUAACGGUCAUAGGCCAUGGAAACUAGGAGCACCAUUUCGCUGCCAGUGAAGAAAUGAACAAAGAAAAUCUGGGCCAGGCAGGCAUCAAAAGCAAUAGUCUUGCGCUCAACCAGUAAGUCUGUAAUCAUUUUAAGGGUA [A94C A116U], the self-cleavage was 0.18.
Work on GUUAACGGUCAUAGGCCAUGGAAACUAGGAGCACCAUUUCGCUGCCAGUGAAGAAAUGAACAAAGAAAAUCUGGGCCAGGCAGGCAUCAAAUGAAAUAGUCUUGCGCUCAACCAGAAAGUCUGUAAUCACUUUAAGGGUA [A92U U130C] yielded a self-cleavage of 1.59.
With GUUAACGGUCAUAGGCCAUGGAAACUAGGAGCACCAUUUCGCUGCCAGUGAAGAAAUGAACAAAGAAAAUCUGGGCCAGGCAGGCAUCAAAUGAAAUAGUCUUGCGCUCAACCUGAAAGUCUGUAAUCAUUUUAAGGGUA [A92U A114U] the self-cleavage was 0.14.
For GUUAACGGUCAUAGGCCAUGGAAACUAGGAGCACCAUUUCGCUGCCAGUGAAGAAAUGAACAAAGAAAAUCUGGGCCAGGCAGGCAUCAAAUGAAAUAGUCUUGCGCUCAACCGGAAAGUCUGUAAUCAUUUUAAGGGUA [A92U A114G], the self-cleavage was 0.17.
Variant GUUAACGGUCAUAGGCCAUGGAAACUAGGAGCACCAUUUCGCUGCCAGUGAAGAAAUGAACAAAGAAAAUCUGGGCCAGGCAGGCAUCAAAACAAAUGGUCUUGCGCUCAACCAGAAAGUCUGUAAUCAUUUUAAGGGUA [G93C A98G] has a self-cleavage of 1.57.
